Laboratory results reported in US9650421B2, “Self-assembled nanostructures” (NORTHWESTERN UNIVERSITY, priority 2011, dated 2017).
No end group written: not given here.

Tests used:
nucleic acid = settings: physiological nucleic acid ligand; cited from earlier work
[1] = Circular dichroism of the peptide (alpha-helical content); assay type: physicochemical
Experimental: FIG. 3 depicts circular dichroism of peptide 1 at 21 μM at pH 8 in Tris buffer.
The self-assembly of molecules 1 and 2 into mushroom-shaped nanostructures by coiled-coil formation is an aspect of the disclosure. The self-assembly of the block copolymer 1 was characterized under physiological conditions to probe its propensity to generate […] coiled-coils aggregates.

[2] = Sedimentation equilibrium analytical ultracentrifugation; assay type: physicochemical; design: partial specific volume: unit not given here
Experimental: The coiled-coil formation was then investigated further by analytical ultracentrifugation, which gives access to the absolute molecular weight of the aggregates in solution and subsequently their aggregation number. Equilibrium experiments were conducted at 23° C. and in 50 mM phosphate buffer containing 150 mM NaCl, pH 7.4. Three loading concentrations (18, 30 and 42 μM) were scanned at 230 nm, and sedimented to equilibrium at 20 krpm, 26.6 krpm, 33.3 krpm, and at 39.9 krpm, resulting in 12 scans which were globally fit to multiple models as described previously [Johnson et al., Biophys. J. 36(3): 575-588 (1981); Demeler et al., UltraScan A Comprehensive Data Analysis Software Package for Analytical Ultracentrifugation Experiments. Analytical Ultracentrifugation—Techniques and Methods. Royal Society of Chemistry: 2005]. The most appropriate model was chosen based on visual inspection of the residual run patterns and based on the best statistics. Statistics were evaluated with the Monte Carlo analysis implemented in UltraScan [Demeler et al., Colloid & Polymer Science 286(2): 129-137 (2008)].
A good fit was obtained when all scans were fitted globally to a single ideal species model (RMSD=7.3631e-03, see FIG. 4). A fixed molecular weight distribution model with 100 molecular weight slots between 10,000 and 50,000 Dalton provided slightly better statistics (RMSD=4.6435e-03) because of the additional degrees of freedom.
This molecular weight was consistent with a hexameric assembly of 1. […] Since both sedimentation velocity and sedimentation equilibrium experiments only measure the buoyant molecular weight of the sample, errors can be introduced when the partial specific volume is in error. The partial specific volume of 1 was not determined in an independent measurement, but it is reasonable to assume that due to the presence of the PEG2000 chain, the partial specific volume is actually higher than was estimated. The partial specific volume was therefore also fitted using the single species ideal equilibrium model, holding the molecular weight fixed at the theoretical estimate of 39,921 Daltons and determined a partial specific volume of […], which is reasonable considering the presence of the PEG2000 chain.

[3] = Sedimentation velocity analytical ultracentrifugation; assay type: physicochemical
Experimental: Sedimentation velocity experiments were conducted in the same buffer as the equilibrium experiments. Velocity experiments were performed at 50 krpm and 23° C., scans were taken at 230 nm in intensity mode. The data were analyzed with the 2-dimensional spectrum analysis (2DSA) [Brookes et al., European Biophysics Journal 39(3): 405-414 (2010)] and time invariant noise was subtracted. 2DSA results were further refined with the genetic algorithm analysis (GA) [Brookes et al., Proceedings of the 9th annual conference on Genetic and evolutionary computation 361-368 (2007)] coupled with Monte Carlo (MC) analysis [Demeler et al., UltraScan A Comprehensive Data Analysis Software Package for Analytical Ultracentrifugation Experiments. Analytical Ultracentrifugation—Techniques and Methods. Royal Society of Chemistry: 2005]. Sedimentation coefficient distributions were calculated with the van Holde-Weischet analysis [Demeler et al., Anal. Biochem. 335(2): 279-288 (2004)].
Weight-average sedimentation coefficients determined with the 2DSA-MC and the GA-MC analysis were both 2.26 s.

1200 bp DNA fragment = assay: Agarose gel shift assay of DNA binding; settings: for peptide concentration at which no free DNA can be detected: 200 ng DNA in 20 μl; for peptide molecules for one molecule of DNA at full binding / peptides per base pair at full binding: at 20 μM peptide
Experimental: FIG. 6 depicts agarose gel electrophoresis of complexes of 2 and a 1200 bp DNA fragment. Each sample was prepared in a volume of 20 μl Well 1: 200 ng of 1200 bp DNA fragment; Well 2—10: 200 ng of 1200 bp DNA fragment+2 at a concentration of 2.5-5-7.5-10-15-20-25-35-45 μM.
The ability of compounds 1 and 2 to bind to nucleic acids was assayed by agarose gel shift assays where DNA was mixed with peptides 1 and 2 in different ratio. (FIG. 6). According to these studies at a peptide concentration of 20 μM, no free DNA can be detected in the sample. This corresponds to a ratio of approximately 1600 peptide molecules for one molecule of DNA, or 1.3 peptides per base pair.

[4] = test system: plasmid pBR322 DNA template; assay: TEM of peptide-plasmid DNA complexes; assay type: physicochemical; settings: peptide 80 μM, plasmid 200 ng in 20 μl 25 mM Tris buffer pH 7.4
Experimental: A Complex between 3 (80 μM) and plasmid pbr322 (200 ng) in 20 μl of 25 mM Tris buffer (pH 7.4, 25 mM) B Complex between 1 (80 μM) and plasmid pbr322 (200 ng) in 20 μl of 25 mM Tris buffer (pH 7.4, 25 mM) C Complex between 2 (80 μM) and plasmid pbr322 (200 ng) in 20 μl of 25 mM Tris buffer (pH 7.4, 25 mM).
(§1) Complexes between nucleic acid templates and molecules 1, 2 and 3 were prepared under conditions where no more free DNA could be detected by gel electrophoresis and analyzed by transmission electron microscopy (TEM).

[5] = test system: double strand DNA fragments; assay: TEM of peptide-linear double strand DNA fragment complexes; assay type: physicochemical; settings: for morphology of complexes with short DNA fragments: short ds DNA fragments (150, 300 bp); for morphology of complexes with DNA fragments above 300 bp: template length above 300 bp (600, 1200 bp)
Experimental: (§2) A Complex between 1 (80 μM) and ds 150 bp DNA fragment (200 ng) in 20 μl of 25 mM Tris buffer (pH 7.4, 25 mM) B Complex between 2 (80 μM) and ds 150 bp fragment (200 ng) in 20 μl of 25 mM Tris buffer (pH 7.4, 25 mM) C Complex between 1 (80 μM) and ds 300 bp DNA fragment (200 ng) in 20 μl of 25 mM Tris buffer (pH 7.4, 25 mM) D Complex between 2 (80 μM) and ds 300 bp fragment (200 ng) in 20 μl of 25 mM Tris buffer (pH 7.4, 25 mM).
as §2, with “600” for “150”, “1200” for “300”
as §1
The toroid proportion is insignificant as they are difficult to observe. Furthermore, the length of the complexes was homogenous, and around 706 nm in average. The calculated length of the PBR322 plasmid in a supercoiled conformation is 737 nm, very close to the observed dimensions. A slight shortening of the complexes can be explained by the contraction of DNA in the presence of multivalent counterions. Complexes of short double strand DNA fragments (25-1200 bp) have also been prepared and observed by TEM. (FIG. 8). The expected control of the dimensions of the complexes by template effect clearly obeys different regimes depending both of the length of the template and design of the artificial capsomers.

[6] = fixed molecular weight distribution model, Monte Carlo analysis

Row | Molecule | binding constant to nucleic acid (nucleic acid) | alpha-helical content ([1]; before addition of DNA, 21 μM, pH 8, Tris buffer) [%] | alpha-helical content ([1]; upon addition of DNA) [%] | molecular weight of the species in solution, single ideal species fit ([2]; 23° C., 50 mM phosphate buffer, 150 mM NaCl, pH 7.4, 18, 30 and 42 μM) [kDa] | oligomeric state in solution ([2]; concentrations between 18 and 42 μM) | partial specific volume ([2]; fitted with single species ideal equilibrium model, molecular weight fixed at 39,921 Daltons) | Z-average molecular weight [2, 6] [kDa] | number-average molecular weight [2, 6] [kDa] | weight-average molecular weight [2, 6] [kDa] | weight-average sedimentation coefficient ([3]; 2DSA-MC and GA-MC analysis) [s] | frictional ratio ([3]; GA-MC analysis) | molecular weight of single species (94% of the signal) ([3]; GA-MC analysis) [kDa] | weight-average sedimentation coefficient ([3]; van Holde-Weischet analysis, 50 krpm, 23° C.) [s] | peptide concentration at which no free DNA can be detected (1200 bp DNA fragment) [µM] | peptide molecules for one molecule of DNA at full binding (1200 bp DNA fragment) | peptides per base pair at full binding (1200 bp DNA fragment) | morphology of complexes with plasmid pBR322 [4] | morphology of complexes with short DNA fragments [5] | morphology of complexes with DNA fragments above 300 bp [5] | average length of complexes with plasmid pBR322 [4]
1 | NCCCNCCCCNCCCN [spermine] | micromolar range |  |  |  |  |  |  |  |  |  |  |  |  |  |  |  |  |  |  | 
2 | peptide 1: Coiled-coil peptide (SEQ ID NO: 1) with C-terminal lysine-linked spermine DNA binding unit and PEG2000 carboxylic acid coupled to N-terminus ({PEG2000 carboxylic acid}-REGVAKALRAVANALHYNASALEEVADALQKVKM; not fully specified (C-terminus)) |  | 36 | 53 | 33.38 | hexamer or heptameric oligomer | 0.809 | 36.28 | 32.34 | 34.67 | 2.26 | 1.370 | 33.74 | 2.28 | 20 | approximately 1600 | 1.3 | mixture of rods, branched and toroidal complexes | rodlike morphology and having predominantly the length of the DNA template | mixture of the expected filamentous complexes of different length and toroidal complexes | 
3 | 2: Coiled-coil peptide (SEQ ID NO: 1) with spermine unit and mPEG5000-maleimide conjugated to an N-terminal cysteine residue ({C(mPEG5000-maleimide)}-REGVAKALRAVANALHYNASALEEVADALQKVKM; also: spermine unit, site not given here) [compound 2] |  |  |  |  |  |  |  |  |  |  |  |  |  | 20 | approximately 1600 | 1.3 | only filamentous complexes were observed | rodlike morphology and having predominantly the length of the DNA template | homogenous rods having predominantly a length corresponding to the DNA template folded in two | around 706 nm
